Consider two molecules from US20200299373A1.

Values joined by “and” are separate entries in the source; they are usually repeats but may differ in a detail not shown here. Equal entries are not always repeated.

For test [1], the target named is T1, FAM19A5 epitope fragment F1 conjugated to BSA (human).
T1 chain: QLAAGTCEIVTLDR
In words: ELISA, antigen coated on the plate, antibody in solution, absorbance at 492 nm. Particulars: remark: other sources report otherwise. A general note: In an ELISA, binding on a coated surface is turned into a signal by an enzyme label.

Test [2] concerns the target T2, FAM19A5 epitope fragment F3 conjugated to BSA (human).
T2 chain: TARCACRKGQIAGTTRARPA
The description is as above. Particulars: remark: other sources report otherwise.

Test [3] concerns the target T3, FAM19A5 epitope fragment F4 conjugated to BSA (human).
T3 chain: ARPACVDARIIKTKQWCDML
Described as above. Particulars: remark: other sources report otherwise.

The target of test [4] is T4, FAM19A5 epitope fragment F5 conjugated to BSA (human).
T4 chain: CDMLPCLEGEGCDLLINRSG
The description is as above. The note with it: remark: other sources report otherwise.

Test [5] has as its target T5, FAM19A5 epitope fragment F6 conjugated to BSA (human).
T5 chain: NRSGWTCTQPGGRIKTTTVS
Described as above. Particulars: remark: other sources report otherwise.

Test [6] addresses recombinant human FAM19A5 protein (His-tagged) (human) (UniProt Q7Z5A7). In words: ELISA on coated FAM19A5, as in Example 6.
Test [7] shares this target. Put plainly: ELISA on N'-Term His FAM19A5, fit of the titration (OD 492 nm); R2 printed 0.8806.
For test [8] the target is unchanged. In words: ELISA, His-FAM19A5 (positive control) coated on the plate, absorbance at 492 nm.
The target is the same in test [9]. In words: two-site sandwich ELISA; capture antibody 3-2; biotinylated detection antibody 1-65; antigen in ng/mL.
Test [10] has the same target. Put plainly: two-site sandwich ELISA; capture antibody 13B4; biotinylated detection antibody 1-65; antigen in ng/mL.
Test [11] has the same target. In words: two-site sandwich ELISA; capture antibody 2-13; biotinylated detection antibody 1-65; antigen in ng/mL.
For test [12] the target is unchanged. In words: two-site sandwich ELISA; capture antibody P2-A03; biotinylated detection antibody 1-65; antigen in ng/mL.
Test [13] has the same target. In words: two-site sandwich ELISA; capture antibody P2-F11; biotinylated detection antibody 1-65; antigen in ng/mL.
For test [14] the target is unchanged. Put plainly: two-site sandwich ELISA; capture antibody 3-2; S/N = O.D. at 10 ng/mL antigen / O.D. at 0 ng/mL; O.D. in column 0 printed 0.28.
Test [15] has the same target. In words: two-site sandwich ELISA; capture antibody 13B4; S/N = O.D. at 10 ng/mL antigen / O.D. at 0 ng/mL; O.D. in column 0 printed 0.15.
For test [16] the target is unchanged. Put plainly: two-site sandwich ELISA; capture antibody 2-13; S/N = O.D. at 10 ng/mL antigen / O.D. at 0 ng/mL; O.D. in column 0 printed 0.55.
Test [17] shares this target. Put plainly: two-site sandwich ELISA; capture antibody P2-A03; S/N = O.D. at 10 ng/mL antigen / O.D. at 0 ng/mL; O.D. in column 0 printed 0.1.
Test [18] has the same target. In words: two-site sandwich ELISA; capture antibody P2-F11; S/N = O.D. at 10 ng/mL antigen / O.D. at 0 ng/mL; O.D. in column 0 printed 0.19.

B1: anti-FAM19A5 antibody 3-2 (antibody, V domains shown)
VH: not shown
VL: ALTQPSSVSANPGETVKITCSGGGSYAGSYYYGWYQQKAPGSAPVTLIYESNKRPSDIPSRFSGSTSGSTATLTITGVQADDEAIYYCGSWDSSNGGIFGAGTTLTVL
modifications: here or on the partner: conjugated to BSA
With B1, the O.D. in [1] was 0.06 and 0.05; in test [2] it was 0.06 and 0.05; in test [3], 0.05; in test [4], 0.05; in test [5], 0.05.

B2: anti-FAM19A5 antibody 1-65 (antibody, V domains shown)
VH: AVTLDESGGGLQTPGGALSLVCKASGFTFSSYQMGWVRQAPGKGLEWVGVINKSGSDTSYGSAVKGRATISRDNGQSTVRLQLNNLRAEDTGTYFCAKGSASYITAATIDAWGHGTEVIVSS
VL: ALTQPSSVSANPGETVKITCSGGGSSGYGYGWYQQKSPSSAPLTVIYWNDKRPSDIPSRFSGSKSGSTHTLTITGVQAEDEAVYFCGNDDYSSDSGYVGVFGAGTTLTVL
On to B2, for which the dissociation constant (Kd) in test [6] worked out at 0.1 nM. The Bmax in [7] was 3.26. Further, the O.D. in test [8] stood at 3.95. Moreover, the O.D., antigen 100 in test [9] turned out to be 1.98; in [10], 0.19; in test [11] it was 1.73; in test [12], 0.16; in test [13] it was 1.61. Besides, the O.D., antigen column 10 was 1.83 in [9]; 0.15 in test [10]; 1.81 in [11]; 0.11 in test [12]; 0.33 in test [13]. In addition, the S/N in test [14] is 6.5; in test [15], 1; in test [16], 3.3; in [17], 1.1; in [18], 1.7.

What is called Kd is the free concentration of one partner at which half of the binding sites on the other are occupied at equilibrium, for simple one-to-one binding.
